Laboratory results from the supplement of paper PMC11136658.

Test system: peptide library, one residue held at a place counted from the Y acceptor
Assay: relative phosphorylation of the sub-library (ratio to the mean residue at this position); higher = residue favoured
How it was run: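 Purified recombinant kinases were given 50 μM ATP with γ-32P-ATP and biotinylated Tyr-centred peptide library mixtures for 90 min in 384-well plates. Peptides bound to streptavidin membranes were rinsed and quantified by phosphorimaging, and intensities were normalized per position by the sum of the 18 randomized residues (16 with the Ser/Thr-free library) and multiplied by that number. The reported values are phosphorylation relative to the mean randomized residue.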

BLK, construct: Full length, human, sequence (P51451 whole entry, looked up): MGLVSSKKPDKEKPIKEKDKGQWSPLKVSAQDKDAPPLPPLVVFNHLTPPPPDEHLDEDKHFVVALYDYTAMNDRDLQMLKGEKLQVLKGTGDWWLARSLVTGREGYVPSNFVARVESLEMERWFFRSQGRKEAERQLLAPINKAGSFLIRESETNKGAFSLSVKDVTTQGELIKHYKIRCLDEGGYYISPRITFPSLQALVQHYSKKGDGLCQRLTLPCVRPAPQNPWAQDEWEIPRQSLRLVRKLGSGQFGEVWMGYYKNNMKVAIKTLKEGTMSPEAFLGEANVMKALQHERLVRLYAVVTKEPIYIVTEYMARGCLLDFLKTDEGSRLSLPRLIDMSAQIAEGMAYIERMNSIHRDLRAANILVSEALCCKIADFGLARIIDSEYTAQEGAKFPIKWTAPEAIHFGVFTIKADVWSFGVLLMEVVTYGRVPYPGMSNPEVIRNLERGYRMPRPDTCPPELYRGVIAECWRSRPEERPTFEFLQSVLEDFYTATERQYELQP
BMPR2, construct: aa172-end, human, sequence (Q13873 172-1038, looked up): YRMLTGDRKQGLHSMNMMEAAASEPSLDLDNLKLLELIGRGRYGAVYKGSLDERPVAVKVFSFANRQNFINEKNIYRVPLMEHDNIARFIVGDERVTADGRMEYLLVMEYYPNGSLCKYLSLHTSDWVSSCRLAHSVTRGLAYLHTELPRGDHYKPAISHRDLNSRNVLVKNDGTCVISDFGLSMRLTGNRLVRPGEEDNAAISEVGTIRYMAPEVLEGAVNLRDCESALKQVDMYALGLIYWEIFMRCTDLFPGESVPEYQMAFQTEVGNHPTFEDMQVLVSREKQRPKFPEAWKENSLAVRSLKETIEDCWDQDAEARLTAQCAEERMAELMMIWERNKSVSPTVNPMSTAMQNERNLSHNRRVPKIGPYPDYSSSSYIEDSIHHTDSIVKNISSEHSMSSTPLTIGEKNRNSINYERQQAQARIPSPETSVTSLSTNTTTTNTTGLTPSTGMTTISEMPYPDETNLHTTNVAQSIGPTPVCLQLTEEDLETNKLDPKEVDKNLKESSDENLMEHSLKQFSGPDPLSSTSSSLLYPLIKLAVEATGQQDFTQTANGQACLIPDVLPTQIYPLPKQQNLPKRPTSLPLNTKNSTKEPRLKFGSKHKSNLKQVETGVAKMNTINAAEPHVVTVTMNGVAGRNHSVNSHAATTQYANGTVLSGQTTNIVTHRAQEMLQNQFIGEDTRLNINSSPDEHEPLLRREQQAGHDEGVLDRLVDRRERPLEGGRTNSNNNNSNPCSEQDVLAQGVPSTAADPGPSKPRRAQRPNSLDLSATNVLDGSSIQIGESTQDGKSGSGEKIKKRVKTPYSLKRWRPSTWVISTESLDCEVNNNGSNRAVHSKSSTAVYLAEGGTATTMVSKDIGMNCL
BTK, construct: Full length, human, sequence (Q06187 whole entry, looked up): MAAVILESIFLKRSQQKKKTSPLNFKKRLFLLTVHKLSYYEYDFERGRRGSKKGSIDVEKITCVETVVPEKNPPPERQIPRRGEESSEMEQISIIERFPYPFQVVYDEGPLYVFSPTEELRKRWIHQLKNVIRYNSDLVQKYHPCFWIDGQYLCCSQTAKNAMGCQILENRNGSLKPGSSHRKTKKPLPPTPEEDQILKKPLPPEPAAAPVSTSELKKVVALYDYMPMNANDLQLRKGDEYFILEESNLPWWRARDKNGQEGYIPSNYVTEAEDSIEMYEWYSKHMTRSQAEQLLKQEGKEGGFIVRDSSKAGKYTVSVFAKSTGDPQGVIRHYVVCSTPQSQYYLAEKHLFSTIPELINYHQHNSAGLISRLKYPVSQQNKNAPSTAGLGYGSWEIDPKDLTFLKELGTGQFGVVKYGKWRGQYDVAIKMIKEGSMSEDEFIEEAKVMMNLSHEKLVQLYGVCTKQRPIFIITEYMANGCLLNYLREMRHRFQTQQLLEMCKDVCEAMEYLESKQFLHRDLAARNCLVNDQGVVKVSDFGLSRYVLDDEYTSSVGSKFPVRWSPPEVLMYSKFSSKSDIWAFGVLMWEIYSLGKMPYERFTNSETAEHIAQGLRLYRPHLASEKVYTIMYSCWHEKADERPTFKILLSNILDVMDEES
AXL, construct: aa473-end, human, sequence (P30530 473-894, looked up): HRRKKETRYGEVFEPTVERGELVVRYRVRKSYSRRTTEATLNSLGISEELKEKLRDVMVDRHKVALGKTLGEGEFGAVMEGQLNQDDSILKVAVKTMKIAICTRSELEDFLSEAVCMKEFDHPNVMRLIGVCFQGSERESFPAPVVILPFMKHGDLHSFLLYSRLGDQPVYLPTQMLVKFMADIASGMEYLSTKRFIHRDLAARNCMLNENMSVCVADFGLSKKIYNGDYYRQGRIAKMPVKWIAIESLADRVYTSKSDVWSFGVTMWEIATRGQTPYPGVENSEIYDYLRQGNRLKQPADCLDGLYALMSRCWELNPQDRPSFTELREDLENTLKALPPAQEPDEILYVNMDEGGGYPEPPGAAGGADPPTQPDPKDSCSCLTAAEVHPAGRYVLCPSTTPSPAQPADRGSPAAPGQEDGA

AXL, construct: aa473-end, human (from UniProt P30530)
relative phosphorylation
Details	at +1	at +2	at +3	at +4	at +5	at -1	at -2	at -3	at -4	at -5
A fixed	1.58	0.759	0.52	0.973	0.953	0.707	0.976	0.87	1.16	0.962
D fixed	0.68	0.48	0.401	0.874	1.06	0.354	0.754	0.897	0.884	0.822
E fixed	1.19	0.946	0.327	1.07	1.01	0.34	0.896	1.15	1.1	0.813
F fixed	1.12	1.43	1.61	1.03	0.877	1.51	0.6	0.911	0.948	0.965
G fixed	0.671	0.33	0.527	1.41	1.81	0.306	1.39	1.25	1.36	1.36
H fixed	1.1	0.976	1.05	1.33	0.794	1.77	1.1	1	0.905	1.08
I fixed	1.42	1.31	2.32	0.763	0.446	2.51	0.913	0.722	0.915	0.969
K fixed	0.356	0.723	0.289	0.849	0.911	0.718	1.21	1.09	1.15	1.11
L fixed	0.971	1.33	2.33	0.84	0.548	2.03	0.762	0.792	0.986	0.913
M fixed	1.09	1.13	1.55	1.02	0.69	1.05	0.639	0.84	0.891	0.977
N fixed	0.352	0.811	0.456	0.806	1.25	1.1	1.16	1.29	0.905	1.02
P fixed	0.183	0.751	0.892	1.29	2.23	0.518	1.1	1.25	1.09	1.18
Q fixed	1.02	0.801	0.818	1.18	1.14	0.595	1.23	0.965	1.08	1.11
R fixed	0.457	0.845	0.425	0.928	0.64	0.549	1.14	1.12	1.19	1.26
S fixed	1.2	0.804	0.633	0.894	1.18	0.649	1.44	1.23	0.873	0.843
T fixed	1.29	0.941	0.79	0.849	1.13	0.862	1.11	1.04	0.826	0.841
V fixed	1.72	1.2	1.45	0.744	0.6	1.27	1.05	0.785	0.862	0.827
W fixed	1.6	2.42	1.61	1.16	0.723	1.15	0.539	0.791	0.88	0.963
pThr fixed	1.2	0.933	0.308	0.609	0.743	0.426	0.736	0.827	0.7	0.706
pTyr fixed	1.74	2.15	0.402	0.659	0.818	1.08	0.692	1.06	0.883	0.7

BLK, construct: Full length, human (from UniProt P51451)
relative phosphorylation
Details	at +1	at +2	at +3	at +4	at +5	at -1	at -2	at -3	at -4	at -5
A fixed	2.14	1.24	0.602	0.865	0.935	0.611	1.17	0.881	1.14	1.08
D fixed	1.33	0.554	0.236	0.56	0.668	0.87	1.64	1.7	1.68	1.46
E fixed	2	1.17	0.228	0.643	0.62	1.58	2.03	2.08	1.68	1.35
F fixed	0.463	0.799	1.9	1.14	1.02	0.648	0.466	0.996	0.777	0.846
G fixed	3.16	0.79	0.772	1.28	1.12	0.46	1.41	1.09	1.34	1.27
H fixed	0.603	0.666	0.822	1.2	1.08	0.592	0.778	1.05	0.879	0.978
I fixed	0.558	0.865	2.22	0.721	0.713	3.23	0.629	0.607	0.833	0.764
K fixed	0.198	0.856	0.598	1.35	1.39	0.303	0.597	0.47	0.732	0.941
L fixed	0.458	0.767	2.47	1.13	0.834	1.8	0.682	0.73	0.805	0.721
M fixed	1.11	0.83	0.927	1.16	0.938	0.995	0.605	0.853	0.913	0.816
N fixed	0.538	0.874	0.448	0.796	0.93	0.421	1.3	1.37	0.96	1.09
P fixed	0.222	1.29	0.565	0.834	1.18	0.706	1.35	0.917	1.2	1.23
Q fixed	1.16	0.957	0.414	0.998	0.87	0.589	1.15	0.926	1.09	1.12
R fixed	0.335	1.26	1.3	1.71	1.78	0.324	0.707	0.619	0.81	0.97
S fixed	1.15	1.49	0.608	0.921	1.06	0.454	1.16	1.09	0.833	0.968
T fixed	0.904	1.78	0.724	0.902	1.09	1.54	1.07	1.05	0.82	0.859
V fixed	0.71	1.18	1.29	0.759	0.786	2.31	0.762	0.62	0.737	0.753
W fixed	0.956	0.629	1.88	1.04	0.981	0.564	0.478	0.951	0.784	0.793
pThr fixed	0.782	1.66	0.255	0.373	0.472	2.81	1.61	1.16	1.21	1.35
pTyr fixed	1.22	1.85	0.494	0.629	0.643	0.876	1.17	1.55	1.41	1.4

BMPR2, construct: aa172-end, human (from UniProt Q13873)
relative phosphorylation
Details	at +1	at +2	at +3	at +4	at +5	at -1	at -2	at -3	at -4	at -5
A fixed	0.886	0.936	0.914	0.977	0.907	0.88	0.948	0.948	0.967	0.964
D fixed	0.835	1.34	1.18	1.05	1.04	2.25	1.25	1.33	1.31	1.29
E fixed	0.785	1.44	1.13	1.07	1.04	1.44	1.08	1.27	1.16	1.1
F fixed	0.959	0.852	0.953	0.96	0.947	0.755	1.09	0.989	1.13	1.06
G fixed	0.927	0.923	1.03	1.04	1.07	1.46	1.03	1.02	0.965	0.987
H fixed	1.03	0.986	0.995	1.08	1.06	0.796	1.09	1.1	1.14	1.05
I fixed	1.02	0.969	1.02	1	0.961	0.767	0.754	0.855	0.861	0.928
K fixed	1.11	0.898	0.966	1.04	1.06	0.708	1.06	0.872	0.875	0.942
L fixed	1.09	0.864	0.827	0.834	0.842	0.832	1.05	0.852	0.896	0.863
M fixed	1.06	0.913	0.906	0.917	0.874	0.841	0.97	0.881	0.901	0.892
N fixed	0.897	1.08	1	1	0.99	1.08	1	1.1	0.933	1.05
P fixed	1.23	0.981	1.05	1.07	1.15	0.724	0.825	0.86	0.905	0.928
Q fixed	0.917	0.994	0.979	0.957	0.972	0.92	1.01	1.01	0.987	1.03
R fixed	1.2	0.99	1.14	1.1	1.23	0.92	1.05	1.04	0.92	0.975
V fixed	1.26	1.03	1.04	0.972	0.979	0.781	0.732	0.918	0.911	0.906
W fixed	0.808	0.789	0.875	0.919	0.88	0.843	1.06	0.963	1.14	1.03
pThr fixed	2.07	1.7	1.39	1.4	1.12	3.29	1.35	1.22	1.22	1.27
pTyr fixed	1.48	2.01	1.17	1.27	1.05	2.54	1.64	2.3	2	1.47

BTK, construct: Full length, human (from UniProt Q06187)
relative phosphorylation
Details	at +1	at +2	at +3	at +4	at +5	at -1	at -2	at -3	at -4	at -5
A fixed	1.39	0.87	1.06	0.754	0.911	0.443	0.964	0.709	1.04	0.982
D fixed	0.67	0.561	0.345	0.63	0.755	0.375	1.14	1.22	1.19	1.1
E fixed	1.36	1.13	0.302	0.661	0.676	0.416	1.24	1.71	1.41	0.914
F fixed	0.954	1.32	1.41	1.1	1.46	1.97	0.934	1.43	1.13	1.21
G fixed	1.1	0.546	0.759	0.928	0.941	0.308	1.04	0.779	1.03	1.01
H fixed	0.657	0.679	0.995	1.02	0.909	1.3	0.871	1	0.984	1.02
I fixed	1.17	1.19	1.42	1.01	0.796	2.79	0.874	0.799	1.01	1.04
K fixed	0.398	0.873	1.01	1.17	1.05	0.294	0.708	0.644	0.736	0.884
L fixed	1.03	0.884	0.801	0.915	1.05	2.9	1.3	0.812	1.1	0.941
M fixed	1.43	1.05	0.925	1.38	1.24	1.55	0.796	1.11	1.03	1.18
N fixed	0.466	0.827	0.886	0.779	0.949	0.589	1.21	1.1	0.823	1.17
P fixed	0.181	0.636	0.553	0.772	1.23	0.526	1.19	0.967	1.03	0.99
Q fixed	0.963	0.923	0.722	1.07	0.816	0.486	0.966	0.892	1.01	0.937
R fixed	0.524	1.26	1.62	1.53	1.25	0.279	0.771	0.729	0.964	0.985
S fixed	0.888	1.05	1.14	0.749	0.755	0.375	1.15	0.814	0.725	0.766
T fixed	0.812	1.27	0.946	0.917	0.816	0.788	0.868	0.745	0.658	0.769
V fixed	1.58	1.27	1.3	0.944	0.892	1.55	1.07	0.838	0.926	0.965
W fixed	2.42	1.67	1.8	1.68	1.5	1.06	0.902	1.7	1.21	1.14
pThr fixed	1.09	1.45	0.357	0.523	0.47	0.911	1.01	0.846	0.896	0.954
pTyr fixed	1.22	1.58	0.433	0.603	0.684	1.26	1.14	1.15	1.26	1.09
